First the molecules themselves.
B1: Low-density lipoprotein receptor-related protein 5 (Homo sapiens), O75197 (parent)
chain: MEAAPPGPPWPLLLLLLLLLALCGCPAPAAASPLLLFANRRDVRLVDAGGVKLESTIVVSGLEDAAAVDFQFSKGAVYWTDVSEEAIKQTYLNQTGAAVQNVVISGLVSPDGLACDWVGKKLYWTDSETNRIEVANLNGTSRKVLFWQDLDQPRAIALDPAHGYMYWTDWGETPRIERAGMDGSTRKIIVDSDIYWPNGLTIDLEEQKLYWADAKLSFIHRANLDGSFRQKVVEGSLTHPFALTLSGDTLYWTDWQTRSIHACNKRTGGKRKEILSALYSPMDIQVLSQERQPFFHTRCEEDNGGCSHLCLLSPSEPFYTCACPTGVQLQDNGRTCKAGAEEVLLLARRTDLRRISLDTPDFTDIVLQVDDIRHAIAIDYDPLEGYVYWTDDEVRAIRRAYLDGSGAQTLVNTEINDPDGIAVDWVARNLYWTDTGTDRIEVTRLNGTSRKILVSEDLDEPRAIALHPVMGLMYWTDWGENPKIECANLDGQERRVLVNASLGWPNGLALDLQEGKLYWGDAKTDKIEVINVDGTKRRTLLEDKLPHIFGFTLLGDFIYWTDWQRRSIERVHKVKASRDVIIDQLPDLMGLKAVNVAKVVGTNPCADRNGGCSHLCFFTPHATRCGCPIGLELLSDMKTCIVPEAFLVFTSRAAIHRISLETNNNDVAIPLTGVKEASALDFDVSNNHIYWTDVSLKTISRAFMNGSSVEHVVEFGLDYPEGMAVDWMGKNLYWADTGTNRIEVARLDGQFRQVLVWRDLDNPRSLALDPTKGYIYWTEWGGKPRIVRAFMDGTNCMTLVDKVGRANDLTIDYADQRLYWTDLDTNMIESSNMLGQERVVIADDLPHPFGLTQYSDYIYWTDWNLHSIERADKTSGRNRTLIQGHLDFVMDILVFHSSRQDGLNDCMHNNGQCGQLCLAIPGGHRCGCASHYTLDPSSRNCSPPTTFLLFSQKSAISRMIPDDQHSPDLILPLHGLRNVKAIDYDPLDKFIYWVDGRQNIKRAKDDGTQPFVLTSLSQGQNPDRQPHDLSIDIYSRTLFWTCEATNTINVHRLSGEAMGVVLRGDRDKPRAIVVNAERGYLYFTNMQDRAAKIERAALDGTEREVLFTTGLIRPVALVVDNTLGKLFWVDADLKRIESCDLSGANRLTLEDANIVQPLGLTILGKHLYWIDRQQQMIERVEKTTGDKRTRIQGRVAHLTGIHAVEEVSLEEFSAHPCARDNGGCSHICIAKGDGTPRCSCPVHLVLLQNLLTCGEPPTCSPDQFACATGEIDCIPGAWRCDGFPECDDQSDEEGCPVCSAAQFPCARGQCVDLRLRCDGEADCQDRSDEADCDAICLPNQFRCASGQCVLIKQQCDSFPDCIDGSDELMCEITKPPSDDSPAHSSAIGPVIGIILSLFVMGGVYFVCQRVVCQRYAGANGPFPHEYVSGTPHVPLNFIAPGGSQHGPFTGIACGKSMMSSVSLMGGRGGVPLYDRNHVTGASSSSSSSTKATLYPPILNPPPSPATDPSLYNMDMFYSSNIPATARPYRPYIIRGMAPPTTPCSTDVCDSDYSASRWKASKYYLDLNSDSDPYPPPPTPHSQYLSAEDSCPPSPATERSYFHLFPPPPSPCTDSS
partner: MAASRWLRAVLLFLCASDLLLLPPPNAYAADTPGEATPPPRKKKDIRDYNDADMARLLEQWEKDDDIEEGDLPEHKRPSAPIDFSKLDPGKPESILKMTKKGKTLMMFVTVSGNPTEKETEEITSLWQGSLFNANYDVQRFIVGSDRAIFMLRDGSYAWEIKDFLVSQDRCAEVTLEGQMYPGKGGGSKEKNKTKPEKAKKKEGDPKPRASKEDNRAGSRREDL

This assay covers variants of B1. The conditions noted are these: with mesd_mouse Mesd.
As to G171V, the “effect of a mutation on the interaction” value was “disrupting interaction”.
